Measured values as given in patent US7351555B2, “Mouse cytokine receptor Zcytor16” (ZymoGenetics, Inc., priority 2001, dated 2008).

Key:
[1] = system: BaF3/CRF2-4/zcytor11 cells; test: Alamar Blue proliferation assay, IL-TIF activity; type: cell-based, murine; conditions: 3 days + Alamar Blue
Description: BaF3/CRF2-4/zcytor11 cells were spun down and washed in the complete media, described in Example 7A above, but without mIL-3 (hereinafter referred to as “mIL-3 free media”). The cells were spun and washed 3 times to ensure the removal of the mIL-3. Cells were then counted in a hemacytometer. Cells were plated in a 96-well format at 5000 cells per well in a volume of 100 μl per well using the mIL-3 free media.
Proliferation of the BaF3/CRF2-4/zcytor11 cells was assessed using IL-TIF-CEE protein diluted with mIL-3 free media to 50, 10, 2, 1, 0.5, 0.25, 0.13, 0.06 ng/ml concentrations. 100 μl of the diluted protein was added to the BaF3/CRF2-4/zcytor11 cells. The total assay volume is 200 μl. The assay plates were incubated at 37° C., 5% CO2 for 3 days at which time Alamar Blue (Accumed, Chicago, Ill.) was added at 20 μl/well. Plates were again incubated at 37° C., 5% CO2 for 24 hours. Alamar Blue gives a fluourometric readout based on number of live cells, and is thus a direct measurement of cell proliferation in comparison to a negative control. […] Plates were read on the Fmax™ plate reader (Molecular Devices Sunnyvale, Calif.) using the SoftMax™ Pro program, at wavelengths 544 (Excitation) and 590 (Emmission). […] The response, as measured, was approximately 15-fold over background at the high end of 50 ng/ml down to a 2-fold induction at the low end of 0.06 ng/ml.

BaF3 wild type cells = test: Alamar Blue proliferation assay, IL-TIF activity; type: cell-based, murine
BaF3/CRF2-4 cells = test: Alamar Blue proliferation assay, IL-TIF activity; type: cell-based, murine
MES 13 cells = test: IL-TIF activation of SRE/STAT luciferase reporter mini-gene in MES 13 cells; type: cell-based, murine; conditions: 4 h
Description: MES 13 cells (ATCC No. CRL-1927) were plated at 10,000 cells/well in 96-well tissue culture clusters (Costar) in DMEM growth medium (Life Technologies) supplemented with pyruvate and 10% serum (HyClone). Next day, the medium was switched to serum free DMEM medium by substituting 0.1% BSA (Fraction V; Sigma) for serum. This medium also contained the adenoviral construct KZ136 (below) that encodes a luciferase reporter mini-gene driven by SRE and STAT elements, at a 1000:1 multiplicity of infection (m.o.i.), i.e. 1000 adenoviral particles per cell. After allowing 24 h for the incorporation of the adenoviral construct in the cells, the media were changed and replaced with serum-free media. Human recombinant IL-TIF with or without a recombinant Zcytor16-Fc4 fusion was added at the indicated final concentration in the well (as described in Table 11, below). Dilutions of both the IL-TIF and Zcytor16-Fc4 were performed in serum-free medium. 0.1% BSA was added for a basal assay control. 4 h later, cells were lysed and luciferase activity, denoting activation of the reporter gene, was determined in the lysate using an Luciferase Assay System assay kit (Promega) and a Labsystems Luminoskan luminometer (Labsystems, Helsinki, Finland). Activity was expressed as luciferase units (LU) in the lysate.
The construction of the adenoviral KZ136 vector was as follows. The original KZ136 vector is disclosed in Poulsen, L K et al. J. Biol. Chem. 273:6228-6232, 1998. The CMV promoter/enhancer and SV40 pA sequences were removed from pACCMV.pLpA (T. C. Becker et al., […] 43:161-189, 1994.) and replaced with a linker containing Asp718/KpnI and HindIII sites (oligos ZC13252 (SEQ ID NO:26) and ZC13453 (SEQ ID NO:27)). The STAT/SRE driven luciferase reporter cassette was exised from vector KZ136 (Poulsen, L K et al., supra.).) as a Asp718/KpnI-HindIII fragment and inserted into the adapted pAC vector. Recombinant KZ136 Adenovirus was produced by transfection with JM17 Adenovirus into 293 cells as described in T. C. Becker et al. supra.). Plaque purified virus was amplified and used to infect cultured cells at 5-50 pfu/cell 12-48 hours before assay. Luciferase reporter assays were performed as described in 96 well microplates as per Poulsen, L K et al., supra.).

K-562 cells = test: K-562 cytotoxicity assay (MTT); type: cell-based, human; conditions: 72 h
Description: The K-562 cell line (CRL-243, ATCC) has attained widespread use as a highly sensitive in vitro target for cytotoxicity assays. K-562 blasts are multipotential, hematopoietic malignant cells that spontaneously differentiate into recognizable progenitors of the erythrocytic, granulocytic and monocytic series (Lozzio, B B et al., Proc. Soc. Exp. Biol. Med. 166: 546-550, 1981).
K562 cells were plated at 5,000 cells/well in 96-well tissue culture clusters (Costar) in DMEM phenol-free growth medium (Life Technologies) supplemented with pyruvate and 10% serum (HyClone). Next day, human recombinant IL-TIF (Example 19), BSA control or retinoic acid (known to be cytotoxic to K562 cells) were added. Seventy-two hours later, the vital stain MTT (Sigma, St Louis, Mo.), a widely used indicator of mitochondrial activity and cell growth, was added to the cells at a final concentration of 0.5 mg/ml. […] is converted to a purple formazan derivative by mitochondrial dehydrogenases. Four hours later, converted MMP was solubilized by adding an equal volume of acidic, isopropanol (0.04N HCl in absolute isopropanol) to the wells. Absorbance was measured at 570 nm, with background subtraction at 650 nm. In this experimental setting, absorbance reflects cell viability. Results shown in Table 12 are expressed as % cytotoxicity.

[2] = system: BaF3/mZcytor16-MPL receptor cell line; test: Proliferation assay with BaF3/mZcytor16-MPL chimera cells; type: cell-based, murine; conditions: in the presence of the correct receptor complex
Description: Using standard methods described herein, cells expressing a BaF3/mZcytor16-MPL chimera (wherein the extracellular domain of the mouse Zcytor16 (e.g., amino acids 24 to 230 of SEQ ID NO:38 or SEQ ID NO:48) is fused in frame to the intracellular signaling domain of the mpl receptor) are tested for proliferative response in the presence of IL-TIF. Such cells serve as a bioassay cell line to measure ligand binding of monomeric or homodimeric mouse Zcytor16 receptors. In addition, BaF3/mZcytor16-MPL chimera cells transfected with an additional heterodimeric cytokine receptor subunit can be assessed for proliferative response in the presence of IL-TIF. […] Transfection of the BaF3/MPL-mZcytor16 cell line with and additional MPL-class II cytokine receptor fusion that signals in the presence of the IL-TIF ligand, such as CRF2-4, determines which heterodimeric cytokine receptor subunits are required for mouse Zcytor16 receptor signaling. Use of MPL-receptor fusions for this purpose alleviates the requirement for the presence of an intracellular signaling domain for the mouse Zcytor16 receptor.
Each independent receptor complex cell line is then assayed in the presence of IL-TIF and proliferation measured using routine methods (e.g., Alamar Blue assay). […]

B1: IL-TIF: human IL-TIF polypeptide (SEQ ID NO:15) containing C-terminal GluGlu (EE) tag, purified from BHK cells (protein, listed as Homo sapiens)
chain: MAALQKSVSSFLMGTLATSCLLLLALLVQGGAAAPISSHCRLDKSNFQQPYITNRTFMLAKEASLADNNTDVRLIGEKLFHGVSMSERCYLMKQVLNFTLEEVLFPQSDRFQPYMQEVVPFLARLSNRLSTCHIEGDDLHIQRNVQKLKDTVKKLGESGEIKAIGELDLLFMSLRNACI
modifications: C-terminal EE tag
proliferative response (induction) ([1]; IL-TIF-CEE 0.06 ng/ml): ~2 fold | proliferative response over background ([1]; IL-TIF-CEE 50 ng/ml): approximately 15 fold | proliferation in response to IL-TIF-CEE (BaF3 wild type cells): did not proliferate | proliferation in response to IL-TIF-CEE (BaF3/CRF2-4 cells): did not proliferate | LU w/o zcytoR16 (MES 13 cells; IL-TIF 0.03 ng/ml): 105 ± 3 LU | LU w/o zcytoR16 (MES 13 cells; IL-TIF 0.3 ng/ml): 108 ± 4 LU | LU w/o zcytoR16 (MES 13 cells; IL-TIF 3 ng/ml): 134 ± 8 LU | LU w/o zcytoR16 (MES 13 cells; IL-TIF 30 ng/ml): 188 ± 16 LU | LU w/o zcytoR16 (MES 13 cells; IL-TIF 300 ng/ml): 258 ± 21 LU | % Cytotoxicity (K-562 cells; 100 ng/ml): 16.2% | % Cytotoxicity (K-562 cells; 300 ng/ml): 32% | increase of proliferation over background [2]: ≥ 5 fold
